Measured values reported in US20250218531A1.
“And” between values parts separate entries of the source, which are not always exact repeats. Identical values can stand only once. Like-named read-outs stand apart in the source and are kept apart here.

Tests used:
[1] = target: human vascular endothelial growth factor A (VEGF-A) (human) (UniProt P15692)
[2] = target: human vascular endothelial growth factor A (VEGF-A) (human) (UniProt P15692); test: SPR, table row 17
[3] = target: human vascular endothelial growth factor A (VEGF-A) (human) (UniProt P15692); test: SPR, table row 15
[4] = target: human epidermal growth factor receptor 2 (HER2) extracellular domain (human) (UniProt P04626); test: SPR, table row 20
[5] = target: human vascular endothelial growth factor A (VEGF-A) (human) (UniProt P15692); test: SPR, table row 20
[6] = target: human epidermal growth factor receptor 2 (HER2) extracellular domain (human) (UniProt P04626); test: SPR, table row 12
[7] = target: human vascular endothelial growth factor A (VEGF-A) (human) (UniProt P15692); test: SPR, table row 12
[8] = target: human epidermal growth factor receptor 2 (HER2) extracellular domain (human) (UniProt P04626); test: SPR
[9] = target: human vascular endothelial growth factor A (VEGF-A) (human) (UniProt P15692); test: SPR
[10] = target: human epidermal growth factor receptor 2 (HER2) extracellular domain (human) (UniProt P04626); test: not stated (FIG. 6A)
[11] = target: human vascular endothelial growth factor A (VEGF-A) (human) (UniProt P15692); test: not stated (FIG. 6A)
[12] = target: human vascular endothelial growth factor A (VEGF-A) (human) (UniProt P15692); test: SPR, table row 18

Chain of human vascular endothelial growth factor A (VEGF-A) (human) (P15692 220-313 limits assumed): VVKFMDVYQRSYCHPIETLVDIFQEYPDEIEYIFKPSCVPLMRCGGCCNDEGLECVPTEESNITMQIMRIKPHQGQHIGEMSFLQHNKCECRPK

Kd [1]: 24.8 nM and 26.2 nM and 31.1 nM
koff [1]: 0.00027 s⁻¹ and 0.000282 s⁻¹ and 0.000342 s⁻¹
kon [1]: 10900 M⁻¹ s⁻¹ and 10800 M⁻¹ s⁻¹ and 11000 M⁻¹ s⁻¹
Kd [2]: 22.7 nM
koff [2]: 0.00028 s⁻¹
kon [2]: 12300 M⁻¹ s⁻¹
Kd [3]: 21.8 nM
koff [3]: 0.000254 s⁻¹
kon [3]: 11700 M⁻¹ s⁻¹
Kd [4]: 10.3 nM
koff [4]: 9.72e-05 s⁻¹
kon [4]: 9470 M⁻¹ s⁻¹
Kd [5]: 24.2 nM
koff [5]: 0.00026 s⁻¹
kon [5]: 10800 M⁻¹ s⁻¹
Kd [6]: 3.22 nM
koff [6]: 6.2e-05 s⁻¹
kon [6]: 19300 M⁻¹ s⁻¹
Kd [7]: 18.4 nM
koff [7]: 0.000211 s⁻¹
kon [7]: 11500 M⁻¹ s⁻¹
Kd [8]: 32.9 nM
Kd [9]: 23.5 nM
Kd [10]: 26 nM
Kd [11]: 300 nM
Kd [12]: 23.2 nM
koff [12]: 0.00025 s⁻¹
kon [12]: 10800 M⁻¹ s⁻¹
Substance: Trastuzumab bH1 (antibody)
